These results are taken from IntAct's records for PubMed 18676636.

Sequences and labels used below:
B1: Forkhead box protein C1 (Homo sapiens), Q12948 (parent)
chain: MQARYSVSSPNSLGVVPYLGGEQSYYRAAAAAAGGGYTAMPAPMSVYSHPAHAEQYPGGMARAYGPYTPQPQPKDMVKPPYSYIALITMAIQNAPDKKITLNGIYQFIMDRFPFYRDNKQGWQNSIRHNLSLNECFVKVPRDDKKPGKGSYWTLDPDSYNMFENGSFLRRRRRFKKKDAVKDKEEKDRLHLKEPPPPGRQPPPAPPEQADGNAPGPQPPPVRIQDIKTENGTCPSPPQPLSPAAALGSGSAAAVPKIESPDSSSSSLSSGSSPPGSLPSARPLSLDGADSAPPPPAPSAPPPHHSQGFSVDNIMTSLRGSPQSAAAELSSGLLASAAASSRAGIAPPLALGAYSPGQSSLYSSPCSQTSSAGSSGGGGGGAGAAGGAGGAGTYHCNLQAMSLYAAGERGGHLQGAPGGAGGSAVDDPLPDYSLPPVTSSSSSSLSHGGGGGGGGGGQEAGHHPAAHQGRLTSWYLNQAGGDLGHLASAAAAAAAAGYPGQQQNFHSVREMFESQRIGLNNSPVNGNSSCQMAFPSSQSLYRTSGAFVYDCSKF

The assay covers variants of B1. The settings on record: with C1QBP.
Turning to F112S, the “effect of a mutation on the interaction” value was “disrupting interaction”.
